Results published in patent US7846719B2, “Express system of soluble glutaminyl cyclase” (Academia Sinica, priority 2006, dated 2010).

Substrate: NC(=O)CC[C@H](NC(=O)[C@@H](N)CCC(N)=O)C(=O)O
Experiment: Spectrophotometric QC activity assay (glutamate dehydrogenase coupled), human QC expressed in E. coli
Assay type: biochemical
Conditions: other: substrate of human QC expressed in Escherichia coli cell, mean ± SD (n = 2), 50 mM Tris-HCl, pH 8.0
Method: For the spectrophotometric method, the 500 μl assay solutions consisted of 15 units glutamate dehydrogenase, 12 mM α-ketoglutarate, 0.6 mM NADH (a reduced form of NAD (nicotinamide adenine dinucleotide)) and varying concentrations of synthetic substrate in 50 mM Tris-HCl, pH 8.0. Reactions were started by the addition of QC (0.04 to 2.5 μg), and the activity was monitored by recording the decrease of NADH absorbance at 340 nm.
The Km and kcat values determined for the recombinant protein of the invention were very similar to the human QC expressed in Drosophila S2 cells, as evident in Table 1.

B1: recombinant human QC (Homo sapiens) (protein)
chain: ASAWPEEKNYHQPAILNSSALRQIAEGTSISEMWQNDLQPLLIERYPGSPGSYAARQHIMQRIQRLQADWVLEIDTFLSQTPYGYRSFSNIISTLNPTAKRHLVLACHYDSKYFSHWNNRVFVGATDSAVPCAMMLELARALDKKLLSLKTVSDSKPDLSLQLIFFDGEEAFLHWSPQDSLYGSRHLAAKMASTPHPPGARGTSQLHGMDLLVLLDLIGAPNPTFPNFFPNSARWFERLQAIEHELHELGLLKDHSLEGRYFQNYSYGGVIQDDHIPFLRRGVPVLHLIPSPFPEVWHTMDDNEENLDESTIDNLNKILQVFVLEYLHL
notes: corresponding to the coding region of human QC (Ala33-Leu361) was re-amplified and inserted into a pET-43.1a expression vector; Nus fusion (pET-43.1a construct) or thioredoxin fusion (pET-32a construct) (N, cleaved yes); (His)6 (pET-43.1a construct: N- and C-terminal sites; pET-32a construct: 5'-end, upstream of the Factor Xa site); made in house; host or cells: E. coli BL21 (DE3)
In the case of B1, the Km is reported as 600 ± 100 µM, the kcat is reported as 8.6 ± 0.5 s⁻¹ and the kcat/Km is reported as 13700 ± 500 M⁻¹ s⁻¹.
